Laboratory results published in patent US20130331690A1, “VASCULAR IMAGING AGENTS” (GE HEALTHCARE AS, priority 2010, published 2013).

Assays:
[1] = of the fluorescence efficiency of fluorescein; cited from earlier work
[2] = Optical biodistribution (ADME profile) in MatBIII orthotopic tumor model; assay type: in vivo, rat; conditions: for Biodistribution, Bladder / Biodistribution, Blood / Biodistribution, Eye / Biodistribution, Kidney / Biodistribution, Liver / Biodistribution, Skin / Biodistribution, Spleen / Biodistribution, Tumor: MatBIII tumor-bearing rats, 125 nmol/kg
Experimental: (§1) In vivo studies were carried out with female Fischer 344 rats or severe combined immunodeficient (SCID) mice, each with an age between 4 and 8 weeks. Animals were housed with non-fluorescent food (Harlan Labs, cat. #TD.97184) and water ad libitum and a standard 12 hour day-night lighting cycle. 1×10^6 cells (100 μL) were injected, using a 27 gauge needle, directly orthotopically into the mammary fat pad of the animal. After allowing 7 days for MatBIII tumor growth (˜1 cm in diameter), animals were injected with test agent and imaged.
The ADME profile of Compound 1 was studied by performing optical biodistribution studies in the MatB III in vivo orthotopic tumor model. Thus, a dose of 125 nmol/kg (volume ˜250-300 μL) was used for the study with an equal volume of PBS used as a negative control. For naïve animals, each tissue type was split into four tubes to ensure sufficient volume for standard preparation. Tissues included blood, bladder/urine, liver, kidney, spleen, eyes, fat, muscle, tumor, and skin collected from the contralateral side from tumor. Using the supernatant from naïve samples (pooled by tissue type), standards were made by adding agent at concentrations of 75 μM, 37.5 μM, 3.75 μM, 0.375 μM and 0 μM, dilutions made with PBS. This yielded a final concentration of 20% injected dose (ID), 10%, 1%, […] and 0. To determine the amount of dye contained in each tissue type, 90 μL of sample or standard was read on a spectrophotometer at settings of 710 excitation/805 Emission.
Samples were adjusted for weight, but there was some sample-to-sample variation.

[3] = tested on: MatBIII tumour model; assay: In vivo fluorescence imaging in the rat MatBIII tumour model; conditions: fluorescence image 1 hour after iv injection, FIG. 2
Experimental: as §1
Compound 1 was studied in the MatBIII model described in Example 3. The dose was either 125 or 250 nmol dye/kg body weight. The fluorescence imaging system was comprised of a 12 bit cooled CCD camera (Hamamatsu ORCA), and with a 735 laser source providing the excitation light. The fluorescence signal was filtered with a band pass emission filter set (810 nm centre frequency, 90 nm bandwidth). 50 ms exposure time was used with 2×2 binning.
For immobilisation during the optical imaging procedure, the animals were anaesthetized in a coaxial open mask to surgical level anaesthesia with Isoflurane (typically 2-3%) with oxygen as the carrier gas. During injection and intermediate time point imaging a lighter anaesthesia level was used. The animals were imaged from above, lying on their backs. […]

[4] = Blood clearance vs time, bi-phasic exponential decay curve fit; assay type: in vivo, rat; conditions: rats

CC1(C)C(/C=C/C=C/C=C/C=C2\N(CCCCS(=O)(=O)O)c3ccc4ccccc4c3C2(C)C)=[N+](CCCCS(=O)(=O)[O-])c2ccc3ccccc3c21 [ICG, indocyanine green]
Fluorescence efficiency relative to fluorescein [1]: 4%

Bis-Cy7 PEG-31k Conjugate [Compound 1]
Retention of the agent in all of the collected tissues ([2]; 48 h post injection): < 1 % ID/g
Biodistribution, Bladder ([2]; 2 min): 0.00 % ID/g
Biodistribution, Blood ([2]; 2 min): 6.56 % ID/g
Biodistribution, Eye ([2]; 2 min): 1.93 % ID/g
Biodistribution, Kidney ([2]; 2 min): 0.12 % ID/g
Biodistribution, Liver ([2]; 2 min): 0.24 % ID/g
Biodistribution, Skin ([2]; 2 min): 0.00 % ID/g
Biodistribution, Spleen ([2]; 2 min): 0.64 % ID/g
Biodistribution, Tumor ([2]; 2 min): 0.00 % ID/g
Biodistribution, Bladder ([2]; 5 min): 0.23 % ID/g
Biodistribution, Blood ([2]; 5 min): 5.65 % ID/g
Biodistribution, Eye ([2]; 5 min): 0.14 % ID/g
Biodistribution, Kidney ([2]; 5 min): 1.35 % ID/g
Biodistribution, Liver ([2]; 5 min): 0.46 % ID/g
Biodistribution, Skin ([2]; 5 min): 0.56 % ID/g
Biodistribution, Spleen ([2]; 5 min): 0.64 % ID/g
Biodistribution, Tumor ([2]; 5 min): 0.53 % ID/g
Biodistribution, Bladder ([2]; 10 min): 1.24 % ID/g
Biodistribution, Blood ([2]; 10 min): 4.26 % ID/g
Biodistribution, Eye ([2]; 10 min): 1.70 % ID/g
Biodistribution, Kidney ([2]; 10 min): 0.41 % ID/g
Biodistribution, Liver ([2]; 10 min): 0.03 % ID/g
Biodistribution, Skin ([2]; 10 min): 0.00 % ID/g
Biodistribution, Spleen ([2]; 10 min): 1.00 % ID/g
Biodistribution, Tumor ([2]; 10 min): 0.00 % ID/g
Biodistribution, Bladder ([2]; 60 min): 0.86 % ID/g
Biodistribution, Blood ([2]; 60 min): 3.05 % ID/g
Biodistribution, Eye ([2]; 60 min): 0.33 % ID/g
Biodistribution, Kidney ([2]; 60 min): 0.51 % ID/g
Biodistribution, Liver ([2]; 60 min): 1.02 % ID/g
Biodistribution, Skin ([2]; 60 min): 0.05 % ID/g
Biodistribution, Spleen ([2]; 60 min): 0.28 % ID/g
Biodistribution, Tumor ([2]; 60 min): 0.00 % ID/g
Biodistribution, Bladder ([2]; 180 min): 0.00 % ID/g
Biodistribution, Blood ([2]; 180 min): 2.19 % ID/g
Biodistribution, Eye ([2]; 180 min): 0.12 % ID/g
Biodistribution, Kidney ([2]; 180 min): 0.63 % ID/g
Biodistribution, Liver ([2]; 180 min): 2.04 % ID/g
Biodistribution, Skin ([2]; 180 min): 0.06 % ID/g
Biodistribution, Spleen ([2]; 180 min): 0.32 % ID/g
Biodistribution, Tumor ([2]; 180 min): 0.05 % ID/g
Biodistribution, Bladder ([2]; 2880 min): 0.00 % ID/g
Biodistribution, Blood ([2]; 2880 min): 0.02 % ID/g
Biodistribution, Eye ([2]; 2880 min): 0.44 % ID/g
Biodistribution, Kidney ([2]; 2880 min): 0.00 % ID/g
Biodistribution, Liver ([2]; 2880 min): 0.23 % ID/g
Biodistribution, Skin ([2]; 2880 min): 0.00 % ID/g
Biodistribution, Spleen ([2]; 2880 min): 0.00 % ID/g
Biodistribution, Tumor ([2]; 2880 min): 0.61 % ID/g
Image contrast of blood vessels and blood-rich tumour [3]: positive image contrast
Blood half-life t1/2α [4]: 4.6 min
Blood half-life t1/2β [4]: 4.33 h
